Consider nine molecules from patent US7012128B2, “Interaction between cyclin D1 and steroid receptor co-activators and uses thereof in assays” (TopoTarget UK Limited, priority 1998, dated 2006).

For test [1], the target named is T1, GST-SRC1 (361-1441) and His-tagged cyclin D1 (Homo sapiens, UniProt P24385).
T1 construct: 6X histidine; made in house; host or cells: E. coli
Put plainly: GST pull down peptide competition assay. It is filed as binding. The conditions noted are these: for interference with binding of cyclin D1 to SRC-1: 0.3 μg and 3 μg peptide, Western blot with anti-cyclin D1 antibody. Here is the method:
To ask whether the LXXLL (SEQ ID NO:6) motifs of SRC-1 are involved in cyclin D1 binding, a peptide competition experiment was performed. Peptides (0.3 μg and 3 μg) derived from the four LXXLL motifs of SRC1 were used in a GST pull down assay using GST-SRC1 (361-1441) and His-tagged cyclin D1 as described above. […] The reduction in binding was greater with 3 μg than with 0.3 μg of each of the LXXLL (SEQ ID NO:6) peptides with no reduction shown with the LXXAA (SEQ ID NO:21)mutant peptide. […] In another experiment, the ability of peptides to compete with cyclin D1 for binding to GST-SRC1 was investigated. Increasing amounts (100, 200 and 500 nM) of AASKHKQLSELLRSG (SEQ ID NO:1) (LXXLL (SEQ ID NO:6)) and AASKHKQLSEAARSG (SEQ ID NO:23) (LXXAA) (SEQ ID NO:21) peptides were used in a GST pull down assay using GST-SRC1 (361-1441) and His-tagged cycliin D1.
GST protein, GST-SRC1 fusion protein and His-tagged cyclin D1 protein were purified as described previously (Zwijsen et al., 1997). Binding between 500 ng GST-SRC1 and 100 ng His-D1 was performed in binding buffer (50 mM NaCl, 50 mM HEPES-KOH pH 7.6, […] 0.1% (w/v) NP40, 0.1 mM PMSF and 0.5% charcoal-stripped serum) bound to glutathione-sepharose for 1 hour at 4° C. The beads were washed three times and bound proteins were eluted by boiling for 10 minutes in sample buffer and separated on 10% SDS-PAGE. The binding of His-cyclin D1 to GST-SRC1 was detected by Western blot analysis using monoclonal antibodies directed against cyclin D1 (DCS-6, Neomarkers). For testing a ternary complex, a baculovirus-produced ER (750 ng, Pan Vera) was added to GST-SRC1 (500 ng) and His-D1 (100 ng) in the presence or absence of 1 μM 17β-estradiol using similar conditions as described above. In Western blot analysis monoclonal antibodies directed against cyclin D1 (DCS-6, Neomarkers) and ER (LH2, Novocastra) were used.
For the peptide inhibition assay using the peptides shown in FIG. 4(B), 150 ng GST/GST-SRC1 and 50 ng His-tagged cyclin D1 were used. […]
Background: Immunoblotting shows a protein as a band on a membrane.

In a further test the test system is wild type ER. Briefly: ERE-TATA-luciferase transactivation of wild type ER in COS-7 cells. It is filed as cell-based. Conditions: COS-7, wild type ER, presence of ligand. Here is the method:
FIG. 1. Mapping of the region of cyclin D1 required for ER-mediated transactivation. • (A) The effect of cyclin D1 deletion mutants on ER activation in the presence of ligand. The cyclin D1 derivatives used in this study are shown in the left panel; right side of Figure represents the relative capacity of the mutants to potentiate ERE-dependent transcription. ER-negative COS-7 cells were transfected with expression vectors for wild type ER (200 ng), cyclin D1 or cyclin D1 mutants (2.5 μg), an internal control §-galactosidase plasmid (0.5 μg) and an ERE-TATA-luciferase reporter (3 μg). The effect on ER transactivation of wild type cyclin D1 was set to 100%. These studies were performed in three separate experiments and expressed as mean values with standard deviation less then […]. The alignment of leucine-rich motif of ER with D-type cyclins are shown on the bottom; the leucine-rich motif in cyclin D1 is indicated as a dark box. The identifiers for the sequences shown are as follows: Cyclin D1 (SEQ ID NO:11), Estrogen receptor (SEQ ID NO:12), the Cyclin D2 (SEQ ID NO:13), and the Cyclin D3 (SEQ ID NO:14). • (B) ER activation by D-type cyclins, cyclin D1 L254/255A point mutant (D1-LALA) and SRC-1 in the presence of ligand. COS-7 cells were transfected with D-type cyclin expression vectors, cyclin D1 Leucine-to-Alanine point mutant (D1-LALA) or SRC-1 expression vector together with wild type ER expression vector, an ERE-TATA-luciferase reporter plasmid and the internal control β-galactosidase construct. Data are expressed as relative luciferase activity compared with basal ERE-luciferase activity of wild type ER and are normalized for transfection efficiencies.
FIG. 3. Role of coactivators in cyclin D1—induced transactivation. • (A) Effect of a dominant negative form of SRC-1 (SRC1-DN) on ER transactivation. SRC1-DN encoding amino acids 1245-1441 of SRC-1 (1, 2.5 and 5 μg) was introduced by transient transfection together with wild type ER (200 ng) and was tested for its ability to modulate ERE-dependent transcription. • (B) Effect of SRCI-DN on SRC-1 and TIF 2 mediated ER transactivation. SRC-1 (3 μg) or TIF-2 (3 μg) were transfected with SRC1-DN (3 μg) and tested for ER transactivation. • (C) Effect of SRC1-DN on cyclin D1-induced transactivation of ER 1-535 mutant. Cyclin D1 was cotransfected with SRC1-DN (1, 2.5, 5 μg) and tested for its effect on an ER harboring a deletion of coactivator binding site in helix 12 (ER 1-535). • (D) Effect of SRC1-DN on cyclin D1-induced transactivation of ER L543/544A mutant. Cyclin D1 and SRC1-DN (1, 2.5, 5 gg) were transfected and tested for the activity of ER helix 12 point mutant (ER L543/544A). The transient transfections (A-C) were performed in COS-7 cells, which were maintained in DMEM with 10 nM ligand. The relative activity was calculated by normalizing to the internal control and was divided by luciferase activity of ER (mutant) in the presence of ligand. The transfection for each set of conditions were done at least in four independent experiments and expressed as average ±SD.
To study how cyclin D1 activates ER, cyclin D1 deletion mutants were tested for their effect on ER-transactivation. COS-7 cells were transfected with cyclin D1 mutants, together with ER and a luciferase reporter gene construct driven by a minimal TATA promoter linked to an estrogen response element (ERE). […] This part of the protein is not involved in CDK interaction and is poorly conserved among the different cyclins. […] To test the relevance of this leucine-rich domain of cyclin D1 in ER activation, a cyclin D1 mutant was constructed in which leucines 254 and 255 were mutated to alanines (D1 L254/255A). This mutation in cyclin D1 is similar to the mutation in ER (ER L543/544A) that interferes with coactivator binding to AF-2 (Danielian et al., 1992). […]

T1 sequence (P24385 whole entry): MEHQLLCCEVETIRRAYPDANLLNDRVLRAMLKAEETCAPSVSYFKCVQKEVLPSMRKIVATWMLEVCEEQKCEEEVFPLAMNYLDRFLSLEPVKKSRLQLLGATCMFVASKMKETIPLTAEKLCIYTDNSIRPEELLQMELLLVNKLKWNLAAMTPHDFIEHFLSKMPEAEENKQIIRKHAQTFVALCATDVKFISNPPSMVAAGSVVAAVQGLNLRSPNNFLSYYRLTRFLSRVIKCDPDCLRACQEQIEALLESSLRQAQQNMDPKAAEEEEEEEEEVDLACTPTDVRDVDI

For “P3: peptide which corresponds to the third of the three centrally located LXXLL motifs of SRC-1 (KDHQLLRYLLDKDE; listed as Homo sapiens)”, the “interference with binding of cyclin D1 to SRC-1” value in test [1] is on record as “best competitor”.

For the molecule “AASKHKQLSELLRSG [LXXLL peptide derived from p300 amino acid 74-88]”, in test [1] (100, 200 and 500 nM peptide), the “competition with cyclin D1 for binding to GST-SRC1” value is “Binding was reduced with increasing concentration”.

For the molecule “D1: amino acids 91-295: amino-terminal deletion mutant of cyclin D1”, the ER transactivation capacity result in the test on wild type ER is on record as “still able to activate ER”.

As for “LXXAA mutant peptide: LXXAA mutant control peptide of the SRC-1 peptide competition experiment, FIG. 4B (PQAQQKSLQQAAT; listed as Homo sapiens) [reference compound]”, the “interference with binding of cyclin D1 to SRC-1” value in test [1] is “no reduction”.

Take “D1: amino acids 1-267: cyclin D1 mutant lacking the extreme carboxyl-terminus”: in the test with wild type ER, the ER transactivation capacity result was “partially retained ER activation”.

Turning to “D1: amino acids 1-247: carboxyl-terminal deletion mutant of cyclin D1”, the ER transactivation capacity result in the test on wild type ER is recorded as “lack ER transactivation capacity”.

B1: cyclin D3: D-type cyclin lacking the leucine-rich motif (protein, UniProt P30281 1-292, looked up)
G1/S-specific cyclin-D3: MELLCCEGTRHAPRAGPDPRLLGDQRVLQSLLRLEERYVPRASYFQCVQREIKPHMRKMLAYWMLEVCEEQRCEEEVFPLAMNYLDRYLSCVPTRKAQLQLLGAVCMLLASKLRETTPLTIEKLCIYTDHAVSPRQLRDWEVLVLGKLKWDLAAVIAHDFLAFILHRLSLPRDRQALVKKHAQTFLALCATDYTFAMYPPSMIATGSIGAAVQGLGACSMSGDELTELLAGITGTEVDCLRACQEQIEAALRESLREASQTSSSPAPKAPRGSSSQGPSQTSTPTDVTAIHL
With B1, the ER transactivation capacity result in the test on wild type ER is “behaved similar-to the D1 L254/255A mutant”.

B2: cyclin D2: D-type cyclin lacking the leucine-rich motif (protein, UniProt P30279 1-289, looked up)
G1/S-specific cyclin-D2: MELLCHEVDPVRRAVRDRNLLRDDRVLQNLLTIEERYLPQCSYFKCVQKDIQPYMRRMVATWMLEVCEEQKCEEEVFPLAMNYLDRFLAGVPTPKSHLQLLGAVCMFLASKLKETSPLTAEKLCIYTDNSIKPQELLEWELVVLGKLKWNLAAVTPHDFIEHILRKLPQQREKLSLIRKHAQTFIALCATDFKFAMYPPSMIATGSVGAAICGLQQDEEVSSLTCDALTELLAKITNTDVDCLKACQEQIEAVLLNSLQQYRQDQRDGSKSEDELDQASTPTDVRDIDL
With B2, the ER transactivation capacity entry in the test on wild type ER is given as “behaved similar-to the D1 L254/255A mutant”.

B3: D1: amino acids 1-202: carboxyl-terminal deletion mutant of cyclin D1 (protein, UniProt P24385 1-202, looked up, fragment)
chain: MEHQLLCCEVETIRRAYPDANLLNDRVLRAMLKAEETCAPSVSYFKCVQKEVLPSMRKIVATWMLEVCEEQKCEEEVFPLAMNYLDRFLSLEPVKKSRLQLLGATCMFVASKMKETIPLTAEKLCIYTDNSIRPEELLQMELLLVNKLKWNLAAMTPHDFIEHFLSKMPEAEENKQIIRKHAQTFVALCATDVKFISNPPSM
Regarding B3, the ER transactivation capacity result in the test on wild type ER is given as “lack ER transactivation capacity”.
